Source: publication PMC8232910

Biological target: EccD5 (Mycobacterium xenopi ESX-5 type VII secretion system) (Mycobacterium xenopi)
Assay: cryo-EM structure; purified ESX-5 complex (void peak fraction) in 20 mM tris (pH 8), 150 mM NaCl; C6 global map 3.4 Å and locally refined map of the cytosolic part 3.0 Å; de novo atomic model of the transmembrane and membrane-adjacent cytoplasmic regions

Substance: EccD5 (Mycobacterium xenopi ESX-5 type VII secretion system) (natural protein)
- stoichiometry N: 2
